Test results reported in publication PMC6864063, “Molecular basis for the interaction between human choline kinase alpha and the SH3 domain of the c-Src tyrosine kinase” (Scientific Reports, 2019).

Biological target: T1, Choline kinase alpha, full-length (FL) wild type (human, UniProt P35790 1-457)
T1 construct: Choline kinase alpha, unspliced variant ChoKα1, 457 residues, human, UniProt P35790; full length, up to Val457; Cleaved ChoKα constructs were the probes of the pull-downs; also called ChoKα; ChoKα1; source: E. coli Rosetta (DE3)pLysS, purified (HisTrap Ni2+ column, S-200 gel filtration); not shown: His6, N-terminal, cleaved; SUMO, N-terminal, cleaved
Assay: SPR; SH3 domains immobilised on one CM5 chip, ChoKα injected in triplicate, 0.1 to 30 µM, 2 min, PBS pH 7.5, 30 µL/min; steady-state KD from RUmax
Conditions: both partners purified

T1 sequence (P35790 whole entry, canonical isoform): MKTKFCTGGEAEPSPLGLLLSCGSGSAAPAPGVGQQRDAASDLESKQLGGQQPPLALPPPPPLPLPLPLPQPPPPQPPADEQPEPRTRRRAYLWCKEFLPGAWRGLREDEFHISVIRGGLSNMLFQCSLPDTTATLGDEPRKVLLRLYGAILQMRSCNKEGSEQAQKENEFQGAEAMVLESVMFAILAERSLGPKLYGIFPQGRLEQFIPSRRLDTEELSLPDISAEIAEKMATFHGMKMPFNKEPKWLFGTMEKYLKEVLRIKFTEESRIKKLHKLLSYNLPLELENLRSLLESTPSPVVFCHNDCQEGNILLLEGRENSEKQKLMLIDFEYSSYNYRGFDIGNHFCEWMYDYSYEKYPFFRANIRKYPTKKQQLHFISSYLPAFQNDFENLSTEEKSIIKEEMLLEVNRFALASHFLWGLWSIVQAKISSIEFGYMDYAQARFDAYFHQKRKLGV

Kd: 25.9 µM
B1: Hck SH3 domain (domain or fragment)
chain: not shown
notes: Src-family kinase Hck, SH3 domain; source: recombinant, purified
